± gives the uncertainty stated by the source.

To fix the notation:
B1: Lysine-specific demethylase 5C, residues 319 to 373; numbered along this chain, P41229 (parent)
chain: AQFIESYVCRMCSRGDEDDKLLLCDGCDDNYHIFCLLPPLPEIPKGVWRCPKCVM

Variants of B1 are the subject of the series. The series can be described thus: abundance fitness (aPCA) (normalised: wild type 0, dead -1); higher = more abundant; growth selection in yeast, the domain comes from the species named. The following applies: Homo sapiens.
Regarding V47P, the abundance fitness is -0.247 ± 0.24. With V47C, the abundance fitness was -0.213 ± 0.2.

As for V47A, the abundance fitness is -0.241 ± 0.13. The result for V47M reads -0.157 ± 0.18. The result for V47L reads -0.359 ± 0.16. The result for V47Q reads 0.208 ± 0.2; that for V47H, -0.064 ± 0.22. For V47F, the abundance fitness came out at 0.082 ± 0.23. The value for V47E was -0.142 ± 0.14; that for V47D was -0.064 ± 0.16; that for V47K was 0.154 ± 0.16.

With V47S, the abundance fitness came out at 0.081 ± 0.12.

Consider V47W, for which the abundance fitness was -0.473 ± 0.18.

As for V47G, the abundance fitness was -0.061 ± 0.091. The value for V47I was -0.132 ± 0.18; that for V47T was -0.101 ± 0.15. The result for V47N reads -0.052 ± 0.19; that for V47Y, -0.058 ± 0.19. With V47R, the abundance fitness is 0.044 ± 0.087.

With G46M, the abundance fitness was -0.235 ± 0.18. The value for G46Q was -0.093 ± 0.29. The result for G46P reads -0.42 ± 0.31; that for G46K, -0.383 ± 0.21.

For G46H, the abundance fitness stood at 0.132 ± 0.23. The value for G46Y was -0.366 ± 0.18; that for G46V was -0.105 ± 0.14. The result for G46A reads -0.059 ± 0.2; that for G46I, -0.538 ± 0.21; that for G46S, -0.204 ± 0.13.

For G46N, the abundance fitness was -0.405 ± 0.2. In the case of G46D, the abundance fitness was determined as 0.043 ± 0.21. The result for G46R reads -0.083 ± 0.15; that for G46L, -0.191 ± 0.11. Regarding G46C, the abundance fitness is -0.578 ± 0.21.

As for G46W, the abundance fitness is -0.464 ± 0.24. The value for G46E was 0.364 ± 0.26; that for C53R was -1 ± 0.17.

Regarding C53I, the abundance fitness was -0.941 ± 0.39. Turning to C53D, the abundance fitness is -0.889 ± 0.28. The value for C53L was -0.909 ± 0.2; that for C53S was -0.835 ± 0.16; that for C53T was -0.939 ± 0.29. The result for C53W reads -1.08 ± 0.27. The value for C53K was -0.921 ± 0.48.

Turning to C53G, the abundance fitness was -0.865 ± 0.15.

On to C53M, for which the abundance fitness is -0.713 ± 0.34. Consider C53P, for which the abundance fitness was -0.744 ± 0.22. The value for C53E was -0.952 ± 0.4; that for C53Y was -1.01 ± 0.3; that for P51I was -0.175 ± 0.19. The result for P51T reads -0.467 ± 0.17.

Take P51V: the abundance fitness is -0.153 ± 0.13. As for P51C, the abundance fitness was -0.427 ± 0.19.

Regarding P51H, the abundance fitness is -0.015 ± 0.17. On to P51G, for which the abundance fitness was -0.494 ± 0.18. As for P51D, the abundance fitness was found to be 0.009 ± 0.19.

Regarding P51Y, the abundance fitness was -0.312 ± 0.26. Regarding P51S, the abundance fitness turned out to be 0.138 ± 0.11.

Regarding P51F, the abundance fitness is -0.048 ± 0.2.

As for P51Q, the abundance fitness was -0.136 ± 0.16. The value for P51L was -0.671 ± 0.14; that for P51K was 0.131 ± 0.19.

Take P51M: the abundance fitness is -0.092 ± 0.16.

With P51A, the abundance fitness is -0.258 ± 0.17. The result for W48D reads -0.686 ± 0.46; that for W48M, -0.671 ± 0.17; that for W48C, -1.15 ± 0.44. The value for W48S was -0.839 ± 0.15; that for W48T was -1.05 ± 0.25; that for W48L was -0.849 ± 0.15. In the case of W48I, the abundance fitness is -0.14 ± 0.27. The result for W48V reads -0.78 ± 0.14; that for W48A, -0.59 ± 0.11; that for W48R, -0.611 ± 0.13. On to W48K, for which the abundance fitness is -0.635 ± 0.18. The result for W48H reads -0.811 ± 0.37. The value for W48Q was -0.566 ± 0.17; that for W48G was -0.676 ± 0.14; that for W48Y was -0.568 ± 0.34. As to W48N, the abundance fitness is -0.853 ± 0.41. The value for W48F was -0.253 ± 0.22. The value for R49C was -0.468 ± 0.22; that for R49V was -0.25 ± 0.15; that for R49N was 0.268 ± 0.15.

Consider R49L, for which the abundance fitness is -0.164 ± 0.12. For the variant R49E, the abundance fitness is -0.178 ± 0.17. The value for R49T was -0.055 ± 0.16; that for R49F was -0.358 ± 0.14.

With R49S, the abundance fitness was -0.324 ± 0.13.

Turning to R49A, the abundance fitness was -0.262 ± 0.16. The result for R49P reads -0.949 ± 0.31. For the variant R49H, the abundance fitness is -0.134 ± 0.19.

R49G: the abundance fitness is -0.4 ± 0.2. The value for R49M was -0.092 ± 0.19; that for R49K was 0.205 ± 0.17. For R49W, the abundance fitness was -0.085 ± 0.31. The result for R49Q reads 0.106 ± 0.19; that for R49D, -0.865 ± 0.34. The value for R49I was -0.176 ± 0.2. The result for L40F reads -0.678 ± 0.46; that for K52S, -0.183 ± 0.12. Take K52P: the abundance fitness worked out at 0.049 ± 0.17.

As to K52V, the abundance fitness was -0.123 ± 0.12.

With K52W, the abundance fitness is -0.364 ± 0.16. Regarding K52Y, the abundance fitness is -0.286 ± 0.24. The value for K52H was -0.184 ± 0.2; that for K52T was 0.018 ± 0.13. The result for K52Q reads -0.065 ± 0.19. In the case of K52L, the abundance fitness was -0.282 ± 0.12. The value for K52A was 0.02 ± 0.12; that for K52N was -0.032 ± 0.21; that for K52G was -0.024 ± 0.085.

Regarding K52F, the abundance fitness is -0.14 ± 0.23.

For K52D, the abundance fitness came out at 0.095 ± 0.17.

In the case of K52R, the abundance fitness came to 0.007 ± 0.096. The result for K52I reads 0.006 ± 0.21. The result for K52M reads -0.611 ± 0.27; that for K52E, -0.23 ± 0.15. The value for C50N was -0.927 ± 0.48.

As for C50D, the abundance fitness was -0.841 ± 0.25. In the case of C50L, the abundance fitness is -0.702 ± 0.14. The result for C50K reads -1 ± 0.27. The value for C50Q was -0.71 ± 0.22; that for C50P was -0.987 ± 0.46. As to C50A, the abundance fitness was -0.887 ± 0.19. The result for C50T reads -1.05 ± 0.39. For C50I, the abundance fitness is -0.757 ± 0.35. The result for C50V reads -1.05 ± 0.19; that for C50G, -1.01 ± 0.15; that for C50R, -0.926 ± 0.14. For the variant C50M, the abundance fitness was -1.17 ± 0.44.

Consider C50W, for which the abundance fitness was -0.823 ± 0.22. The value for C50Y was -0.761 ± 0.28; that for C50E was -0.992 ± 0.24. As for C50F, the abundance fitness is -0.421 ± 0.23. The result for K45I reads -0.25 ± 0.23; that for K45N, -0.022 ± 0.15. The result for K45Q reads -0.277 ± 0.16. The result for K45F reads -0.491 ± 0.21. Regarding K45D, the abundance fitness was 0.237 ± 0.2. Regarding K45R, the abundance fitness is -0.067 ± 0.12. The result for K45E reads -0.138 ± 0.16; that for K45V, -0.179 ± 0.15; that for K45A, -0.176 ± 0.15. The value for K45W was -0.446 ± 0.2. The result for K45C reads -0.156 ± 0.14; that for K45T, -0.003 ± 0.17. Take K45S: the abundance fitness was -0.266 ± 0.12. Consider K45H, for which the abundance fitness is -0.048 ± 0.17. The value for K45P was -0.032 ± 0.14. The result for K45Y reads -0.553 ± 0.27. The value for K45M was -0.469 ± 0.28; that for K45L was -0.175 ± 0.12; that for C35W was -0.804 ± 0.27. For C35Y, the abundance fitness is -0.786 ± 0.39. The result for C35V reads -1.17 ± 0.22. The value for P41Y was -0.244 ± 0.22.

On to P41H, for which the abundance fitness was -0.286 ± 0.23.

(Values after the Human Domainome abundance scans (Beltran et al. 2025).)
